The text below walks through data of US20100113582A1.

The target of assay [1] is YFP-tagged wild-type HIV-1 protease subunit (PRWT^YFP) (HIV-1 (HIV-1NL4-3)) (UniProt P12497). The experiment in a line: FRET, acceptor photobleaching, co-transfected Cos-7 cells.
For assay [2] the target is unchanged. The experiment in a line: FRET, acceptor photobleaching, co-transfected Cos-7 cells (n=23).
The target is the same in assay [3]. The experiment in a line: FRET, acceptor photobleaching, co-transfected Cos-7 cells, no-drug control of FIG. 2D.
The target is the same in assay [4]. The experiment in a line: FRET, acceptor photobleaching, co-transfected Cos-7 cells, no-drug control of FIG. 2F.
In assay [5] the target is HIV-PRD29A^YFP (HIV-1 (HIV-1NL4-3)) (UniProt P12497). The experiment in a line: FRET-HIV-1 assay, co-transfected Cos-7 cells.
Assay [6] addresses HIV-PRD29N^YFP (HIV-1 (HIV-1NL4-3)) (UniProt P12497). The experiment in a line: FRET-HIV-1 assay, co-transfected Cos-7 cells.
The target of assay [7] is HIV-PRR87K^YFP (HIV-1 (HIV-1NL4-3)) (UniProt P12497). The experiment in a line: FRET-HIV-1 assay, co-transfected Cos-7 cells.
Assay [8] concerns the target HIV-PRT26A^YFP (HIV-1 (HIV-1NL4-3)) (UniProt P12497). Kind of assay: FRET-HIV-1 assay, co-transfected Cos-7 cells.

Where only a bound is given, the exact number is not on record here.

In the case of “CFP-tagged wild-type HIV-1 protease subunit (PRWT^CFP) (from UniProt P12497) (enzyme)”, in assay [1], the CFP^A/B ratio is 1.38, the YFP^A/B ratio was 0.17 and the ratio of CFP fluorescence after photobleaching to CFP fluorescence prior to photobleaching was 1.19. For the same substance, in assay [2], the CFP^A/B ratio was 1.24 and the YFP^A/B ratio is 0.47. Besides, the ratio of ECFP fluorescence after photobleaching to before photobleaching in assay [3] stood at 1.27. In addition, the FRET ratio in assay [4] worked out at 1.29.

On to “HIV-PRD29A^CFP (from UniProt P12497) (enzyme)”, for which the average CFP A/B ratio in assay [5] was below 1.

On to “HIV-PRD29N^CFP (from UniProt P12497) (enzyme)”, for which the average CFP A/B ratio in assay [6] is below 1.

“HIV-PRR87K^CFP (from UniProt P12497) (enzyme)”: the average CFP A/B ratio in assay [7] was below 1.

With “HIV-PRT26A^CFP (from UniProt P12497) (enzyme)”, the average CFP A/B ratio in assay [8] was below 1.
